T1: His-MsmLigD protein (M. smegmatis, UniProt A0R3R7 1-762)
T1 construct: Multifunctional DNA ligase LigD of Mycobacterium smegmatis; The vector pET28a with a BamHI insert would put the His tag at the N-terminus; source: E. coli BL21 (DE3), purified (Ni-NTA)
T1 sequence (looked up): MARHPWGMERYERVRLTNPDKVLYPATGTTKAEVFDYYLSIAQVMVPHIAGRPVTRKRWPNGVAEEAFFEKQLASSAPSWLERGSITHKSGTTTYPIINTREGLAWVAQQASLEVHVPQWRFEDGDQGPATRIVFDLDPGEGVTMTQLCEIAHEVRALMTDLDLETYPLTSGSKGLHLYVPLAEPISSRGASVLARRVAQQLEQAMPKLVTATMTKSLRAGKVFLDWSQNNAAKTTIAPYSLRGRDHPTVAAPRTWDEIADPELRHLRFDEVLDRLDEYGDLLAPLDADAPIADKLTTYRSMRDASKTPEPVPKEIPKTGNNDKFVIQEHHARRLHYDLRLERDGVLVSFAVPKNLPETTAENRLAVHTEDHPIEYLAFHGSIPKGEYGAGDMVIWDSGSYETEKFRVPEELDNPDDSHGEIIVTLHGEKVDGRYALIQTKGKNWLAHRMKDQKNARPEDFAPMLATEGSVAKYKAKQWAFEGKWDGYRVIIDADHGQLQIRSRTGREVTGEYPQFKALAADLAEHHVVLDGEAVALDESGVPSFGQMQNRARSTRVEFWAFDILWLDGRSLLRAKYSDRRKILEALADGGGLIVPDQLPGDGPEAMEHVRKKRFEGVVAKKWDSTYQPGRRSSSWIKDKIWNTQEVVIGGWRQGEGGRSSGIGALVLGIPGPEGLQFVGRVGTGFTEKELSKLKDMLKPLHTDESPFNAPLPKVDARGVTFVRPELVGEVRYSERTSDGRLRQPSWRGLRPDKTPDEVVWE

B1: GST-MtuSir2 fusion protein (enzyme)
chain: MRVAVLSGAGISAESGVPTFRDDKNGLWARFDPYELSSTQGWLRNPERVWGWYLWRHYLVANVEPNDGHRAIAAWQDHAEVSVITQNVDDLHERAGSGAVHHLHGSLFEFRCARCGVPYTDALPEMPEPAIEVEPPVCDCGGLIRPDIVWFGEPLPEEPWRSAVEATGSADVMVVVGTSAIVYPAAGLPDLALARGTAVIEVNPEPTPLSGSATISIRESASQALPGLLERLPALLK
notes: the vector pGEX-6P-1 would put GST at the N-terminus; also called MtuSir2-GST
B2: GST-MsmSir2 fusion protein (enzyme, M. smegmatis, UniProt A0R2N3 1-240, looked up)
chain: MQVTVLSGAGISAESGVPTFRDAETGLWAQVDPYEISSTDGWQRNPEKVWAWYLWRHYMMARVAPNEAHRTVAAWEDHLDVRVVTQNIDDLHERAGSTNVYHLHGSLFEFRCDACGSAFEGNLPEMPEPVETIDPPVCPCSGLIRPSVVWFGEPLPDAAWNRSVLAVSSADVVIVVGTSSIVYPAAGLPEAALAAGKPVIEVNPERTPLSDSATVSLRETASEALPTLLQRLPELLNRSA
notes: Sir2 (NAD-dependent deacetylase MSMEG_5175) of Mycobacterium smegmatis; the vector pGEX-6P-1 would put GST at the N-terminus; also called MsmSir2-GST; source: E. coli BL21 (DE3), purified (glutathione-Sepharose 4B)

Assays:
His-MtuLigD protein = target: T2, His-MtuLigD protein (M. tuberculosis, UniProt P9WNV3 1-759); test: pull-down; conditions: both partners purified
T2 construct: The vector pET28a with a BamHI insert would put the His tag at the N-terminus

His-MsmLigD protein = target: T1, His-MsmLigD protein; test: pull-down; GST fusion held on glutathione-Sepharose 4B beads, incubated with purified His-tagged protein at 4°C for 8 h in 50 mM Tris-HCl pH 7.5, 200 mM NaCl, 10% glycerol; washes with 0.1% Nonidet P-40; Western blot with anti-His-tag antibody; conditions: both partners purified

T2 sequence (P9WNV3 whole entry): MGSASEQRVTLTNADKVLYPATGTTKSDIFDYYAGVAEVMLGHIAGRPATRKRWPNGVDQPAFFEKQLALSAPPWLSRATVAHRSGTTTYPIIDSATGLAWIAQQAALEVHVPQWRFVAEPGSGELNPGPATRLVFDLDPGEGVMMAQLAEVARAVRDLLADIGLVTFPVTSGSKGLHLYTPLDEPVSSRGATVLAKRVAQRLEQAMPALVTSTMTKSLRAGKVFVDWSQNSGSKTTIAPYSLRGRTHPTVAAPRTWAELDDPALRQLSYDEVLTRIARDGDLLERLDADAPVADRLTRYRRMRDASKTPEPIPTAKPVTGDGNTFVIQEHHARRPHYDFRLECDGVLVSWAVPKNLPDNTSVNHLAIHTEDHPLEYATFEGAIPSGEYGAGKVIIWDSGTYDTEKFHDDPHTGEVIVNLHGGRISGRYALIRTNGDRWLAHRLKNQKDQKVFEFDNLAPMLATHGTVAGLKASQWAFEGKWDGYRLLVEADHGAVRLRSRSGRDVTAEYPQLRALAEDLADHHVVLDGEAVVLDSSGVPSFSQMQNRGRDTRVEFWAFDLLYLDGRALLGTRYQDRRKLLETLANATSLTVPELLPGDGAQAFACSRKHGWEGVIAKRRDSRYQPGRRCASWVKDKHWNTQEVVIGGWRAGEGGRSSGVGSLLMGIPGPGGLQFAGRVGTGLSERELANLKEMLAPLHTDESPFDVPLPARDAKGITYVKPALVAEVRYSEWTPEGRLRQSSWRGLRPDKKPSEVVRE

Row | Binder | binding result (His-MtuLigD protein) | binding result (His-MsmLigD protein)
1 | B1 | binds | –
2 | B2 | – | binds

From PMC3102665, “A Sir2-Like Protein Participates in Mycobacterial NHEJ” (PLoS ONE, 2011)
